Columns and labels:
[1] = target: human Langerin (human) (UniProt Q9UJ71); assay: cell-based or functional assay
[2] = target: human Langerin (human) (UniProt Q9UJ71); assay: immunogold electron microscopy, 4° C., 5 nm gold goat anti-mouse IgG, Langerhans cells of epidermal cell suspensions
[3] = target: human Langerin (human) (UniProt Q9UJ71); assay: immunogold electron microscopy, 4° C., Langerhans cells of epidermal cell suspensions; isotype control for DCGM4

Sequence of UniProt Q9UJ71 (Q9UJ71 whole entry V278A): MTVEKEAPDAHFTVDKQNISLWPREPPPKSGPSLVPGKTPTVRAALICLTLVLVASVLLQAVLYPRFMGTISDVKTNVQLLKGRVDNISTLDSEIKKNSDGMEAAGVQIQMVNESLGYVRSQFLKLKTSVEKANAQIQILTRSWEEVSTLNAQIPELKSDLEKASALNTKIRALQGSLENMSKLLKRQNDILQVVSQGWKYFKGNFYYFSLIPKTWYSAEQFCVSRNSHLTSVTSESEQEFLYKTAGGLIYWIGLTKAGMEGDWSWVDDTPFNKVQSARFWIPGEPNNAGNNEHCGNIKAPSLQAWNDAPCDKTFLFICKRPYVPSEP

monoclonal antibody DCGM4
half-life (t1/2) of DCGM4 at the cytomembrane [1]: 4.5 min
internalization (decrease of cell-surface-bound antibody by FACS) [1]: 75%
internalization rate k ([1]; scale: °/min): 15.3
gold granules/100 µm membrane (gold granules/100 µm membrane) [2]: 162

control mouse IgG1 (Sigma) (antibody)
gold granules/100 µm membrane (granules/100 µm) [3]: 1.3

Reference: patent US20110033929A1
